Data from paper PMC10943247 (The EMBO Journal, 2024).

Key:
Conditions in all cases: both partners purified
[1] = target: T1, CRL2^FEM1B complex with FEM1B^F549S, unneddylated (human, UniProt Q13617 1-745; P62877 1-108; Q15370 1-104; Q15369 17-112; Q9UK73 1-627, F549S); experiment: grating-coupled interferometry; Creoptix WAVE; MBP-BEX2 and FNIP1/FLCN amine-coupled to 4PCP chips; CRL2^FEM1B injected in a 1:3 dilution series from 1 μM in 10 mM HEPES pH 7.5, 150 mM NaCl, 50 μM ZnCl2, 25 °C; 1:1 kinetics model
T1 construct: Cullin-2 (CUL2), human; primers from the start codon to the last codon; RING-box protein 1 (RBX1), human; primers from the start codon to the stop codon; Elongin-B (ELOB), human, residues 1-104; Elongin-C (ELOC), human, residues 17-112; Protein fem-1 homolog B (FEM1B), human, F549S; also called CRL2FEM1B-F549S; source: CUL2/RBX1 from SF9 insect cells and mutant FEM1B/ELOB/ELOC from E. coli …

[2] = target: T2, CRL2^FEM1B complex with FEM1B^F549T, unneddylated (human, UniProt Q13617 1-745; P62877 1-108; Q15370 1-104; Q15369 17-112; Q9UK73 1-627, F549T); experiment: as above
T2 construct: Cullin-2 (CUL2), human; primers from the start codon to the last codon; RING-box protein 1 (RBX1), human; primers from the start codon to the stop codon; Elongin-B (ELOB), human, residues 1-104; Elongin-C (ELOC), human, residues 17-112; Protein fem-1 homolog B (FEM1B), human, F549T; also called CRL2FEM1B-F549T; source: CUL2/RBX1 from SF9 insect cells and mutant FEM1B/ELOB/ELOC from E. coli …

[3] = target: T3, CRL2^FEM1B complex with FEM1B^Y275R/L278R, unneddylated (human, UniProt Q13617 1-745; P62877 1-108; Q15370 1-104; Q15369 17-112; Q9UK73 1-627, Y275R | L278R); experiment: as above
T3 construct: Cullin-2 (CUL2), human; primers from the start codon to the last codon; RING-box protein 1 (RBX1), human; primers from the start codon to the stop codon; Elongin-B (ELOB), human, residues 1-104; Elongin-C (ELOC), human, residues 17-112; Protein fem-1 homolog B (FEM1B), human, Y275R/L278R; also called CRL2FEM1B-Y275R/L278R; CRL2FEM1B-Y275RL278R; source: CUL2/RBX1 from SF9 insect cells and mutant …

[4] = target: T4, CRL2^FEM1B complex with FEM1B^F549R, unneddylated (human, UniProt Q13617 1-745; P62877 1-108; Q15370 1-104; Q15369 17-112; Q9UK73 1-627, F549R); experiment: as above
T4 construct: Cullin-2 (CUL2), human; primers from the start codon to the last codon; RING-box protein 1 (RBX1), human; primers from the start codon to the stop codon; Elongin-B (ELOB), human, residues 1-104; Elongin-C (ELOC), human, residues 17-112; Protein fem-1 homolog B (FEM1B), human, F549R; also called CRL2FEM1B-F549R; source: CUL2/RBX1 from SF9 insect cells and mutant FEM1B/ELOB/ELOC from E. coli …

[5] = target: T5, CRL2^FEM1B complex with FEM1B^Δ546-553 (FEM1B^DEL), unneddylated (human, UniProt Q13617 1-745; P62877 1-108; Q15370 1-104; Q15369 17-112; Q9UK73 1-627, Δ546-553); experiment: as above
T5 construct: Cullin-2 (CUL2), human; primers from the start codon to the last codon; RING-box protein 1 (RBX1), human; primers from the start codon to the stop codon; Elongin-B (ELOB), human, residues 1-104; Elongin-C (ELOC), human, residues 17-112; Protein fem-1 homolog B (FEM1B), human, with residues 546-553 deleted; also called CRL2FEM1B-DEL; source: CUL2/RBX1 from SF9 insect cells and mutant …

[6] = target: T6, RBX1, as the subunit of CRL2^FEM1B (human, UniProt P62877 1-108); experiment: cryo-EM structure; neddylated CRL2^FEM1B and FNIP1-FLCN mixed 1:1.2, 1 h at 4 °C, GraFix, 1.38 mg/ml
T6 construct: RING-box protein 1 (RBX1), human; primers RBX1-f/RBX1-r run from the start codon to the stop codon; Seen as a subunit of the complexes m1 and m7 in the cryo-EM structures; source: SF9 insect cells, co-expressed with CUL2, purified; within the reconstituted CRL2^FEM1B complex
T6 sequence (P62877 whole entry): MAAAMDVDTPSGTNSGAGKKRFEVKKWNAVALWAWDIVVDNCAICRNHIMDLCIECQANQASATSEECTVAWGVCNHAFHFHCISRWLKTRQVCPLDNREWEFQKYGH

Binder | Kd [1] | Kd [2] | Kd [3] | Kd [4] | Kd [5] | binding result [6]
FNIP1/FLCN complex (complex, human, Folliculin (FLCN), human; Calculated mass of the heterodimer printed as 195.8 kDa; also called FNIP1/FLCN heterodimer; source: HEK293F, BacMam baculovirus, purified (Ni-NTA, Strep Trap, TEV, Superose 6); not shown: mCherry, C-terminal, cleaved; His6, C-terminal, cleaved; 2x Strep-tag, C-terminal, cleaved) chain 1: MAPTLFQKLFSKRTGLGAPGRDARDPDCGFSWPLPEFDPSQIRLIVYQDCERRGRNVLFDSSVKRRNEDISVSKLGSDAQVKVFGKCCQLKPGGDSSSSLDSSVTSSSDIKDQCLKYQGSRCSSDANMLGEMMFGSVAMSYKGSTLKIHQIRSPPQLMLSKVFTARTGSSICGSLNTLQDSLEFINQDNNTLKADNNTVINGLLGNIGLSQFCSPRRAFSEQGPLRLIRSASFFAVHSNPMDMPGRELNEDRDSGIARSASLSSLLITPFPSPNSSLTRSCASSYQRRWRRSQTTSLENGVFPRWSIEESFNLSDESCGPNPGIVRKKKIAIGVIFSLSKDEDENNKFNEFFFSHFPLFESHMNKLKSAIEQAMKMSRRSADASQRSLAYNRIVDALNEFRTTICNLYTMPRIGEPVWLTMMSGTPEKNHLCYRFMKEFTFLMENASKNQFLPALITAVLTNHLAWVPTVMPNGQPPIKIFLEKHSSQSVDMLAKTHPYNPLWAQLGDLYGAIGSPVRLARTVVVGKRQDMVQRLLYFLTYFIRCSELQETHLLENGEDEAIVMPGTVITTTLEKGEIEESEYVLVTMHRNKSSLLFKESEEIRTPNCNCKYCSHPLLGQNVENISQQEREDIQNSSKELLGISDECQMISPSDCQEENAVDVKQYRDKLRTCFDAKLETVVCTGSVPVDKCALSESGLESTEETWQSEKLLDSDSHTGKAMRSTGMVVEKKPPDKIVPASFSCEAAQTKVTFLIGDSMSPDSDTELRSQAVVDQITRHHTKPLKEERGAIDQHQETKQTTKDQSGESDTQNMVSEEPCELPCWNHSDPESMSLFDEYFNDDSIETRTIDDVPFKTSTDSKDHCCMLEFSKILCTKNNKQNNEFCKCIETVPQDSCKTCFPQQDQRDTLSILVPHGDKESSDKKIAVGTEWDIPRNESSDSALGDSESEDTGHDMTRQVSSYYGGEQEDWAEEDEIPFPGSKLIEVSAVQPNIANFGRSLLGGYCSSYVPDFVLQGIGSDERFRQCLMSDLSHAVQHPVLDEPIAEAVCIIADMDKWTVQVASSQRRVTDNKLGKEVLVSSLVSNLLHSTLQLYKHNLSPNFCVMHLEDRLQELYFKSKMLSEYLRGQMRVHVKELGVVLGIESSDLPLLAAVASTHSPYVAQILL chain 2: MNAIVALCHFCELHGPRTLFCTEVLHAPLPQGDGNEDSPGQGEQAEEEEGGIQMNSRMRAHSPAEGASVESSSPGPKKSDMCEGCRSLAAGHPGYISHDKETSIKYVSHQHPSHPQLFSIVRQACVRSLSCEVCPGREGPIFFGDEQHGFVFSHTFFIKDSLARGFQRWYSIITIMMDRIYLINSWPFLLGKVRGIIDELQGKALKVFEAEQFGCPQRAQRMNTAFTPFLHQRNGNAARSLTSLTSDDNLWACLHTSFAWLLKACGSRLTEKLLEGAPTEDTLVQMEKLADLEEESESWDNSEAEEEEKAPVLPESTEGRELTQGPAESSSLSGCGSWQPRKLPVFKSLRHMRQVLGAPSFRMLAWHVLMGNQVIWKSRDVDLVQSAFEVLRTMLPVGCVRIIPYSSQYEEAYRCNFLGLSPHVQIPPHVLSSEFAVIVEVHAAARSTLHPVGCEDDQSLSKYEFVVTSGSPVAADRVGPTILNKIEAALTNQNLSVDVVDQCLVCLKEEWMNKVKVLFKFTKVDSRPKEDTQKLLSILGASEEDNVKLLKFWMTGLSKTYKSHLMSTVRSPTASESRN | 17.5 nM | 33.3 nM | 3.13 nM | 8.99 nM | 4.72 nM | binds
MBP-BEX2 (natural protein, Protein BEX2, human; source: E. coli BL21(DE3), purified (Ni-NTA, Superdex 200); not shown: MBP, N-terminal, kept) MESKEERALNNLIVENVNQENDEKDEKEQVANKGEPLALPLNVSEYCVPRGNRRRFRVRQPILQYRWDIMHRLGEPQARMREENMERIGEEVRQLMEKLREKQLSHSLRAVSTDPPHHDHHDEFCLMP | 23 nM | 109 nM | 3.99 nM | 14 nM | 6.62 nM | 
